Assay results reported in article PMC5758568, “Cryo EM structure of intact rotary H^+-ATPase/synthase from Thermus thermophilus” (Nature Communications, 2018).

T1: B-subunit of the V/A-ATPase from Thermus thermophilus (Thermus thermophilus, UniProt Q56404 1-478)
T1 construct: V/A-type ATPase B-subunit (V1 part), Thermus thermophilus; native subunit in the isolated whole enzyme; Three copies in the enzyme (A3B3); also called subunit B
T1 sequence (looked up): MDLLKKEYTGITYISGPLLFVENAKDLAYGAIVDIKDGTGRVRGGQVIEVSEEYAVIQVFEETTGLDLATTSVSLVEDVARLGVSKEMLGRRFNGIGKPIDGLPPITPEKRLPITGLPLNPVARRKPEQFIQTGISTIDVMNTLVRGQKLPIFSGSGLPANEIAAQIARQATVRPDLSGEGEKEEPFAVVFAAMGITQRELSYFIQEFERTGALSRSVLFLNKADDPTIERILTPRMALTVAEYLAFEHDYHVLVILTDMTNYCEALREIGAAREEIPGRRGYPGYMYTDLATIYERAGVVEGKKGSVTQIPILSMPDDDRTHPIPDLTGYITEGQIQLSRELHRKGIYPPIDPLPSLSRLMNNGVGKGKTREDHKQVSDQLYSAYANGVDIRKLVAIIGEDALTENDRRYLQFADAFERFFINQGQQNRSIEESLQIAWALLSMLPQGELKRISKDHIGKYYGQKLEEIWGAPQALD

T2: d-subunit (subunit C) of the V/A-ATPase from Thermus thermophilus (Thermus thermophilus, UniProt P74902 1-323)
T2 construct: native subunit in the isolated whole enzyme; One copy in the enzyme; also called Vo-d
T2 sequence: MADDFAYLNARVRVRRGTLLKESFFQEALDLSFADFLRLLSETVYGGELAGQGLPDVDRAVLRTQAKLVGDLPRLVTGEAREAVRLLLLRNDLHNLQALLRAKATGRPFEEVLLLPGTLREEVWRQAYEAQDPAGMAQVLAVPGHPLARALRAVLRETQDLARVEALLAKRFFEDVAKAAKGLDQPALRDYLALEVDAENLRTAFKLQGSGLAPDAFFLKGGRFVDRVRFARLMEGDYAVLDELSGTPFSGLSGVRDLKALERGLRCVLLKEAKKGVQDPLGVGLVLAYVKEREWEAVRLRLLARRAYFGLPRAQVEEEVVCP

B1: E-subunit of the V/A-ATPase from Thermus thermophilus (natural protein)
chain: MSKLEAILSQEVEAEIQALLQEAEAKAEAVKREAEEKAKALLQARERALEAQYRAALRRAESAGELLVATARTQARGEVLEEVRRRVREALEALPQKPEWPEVVRKLALEALEALPGAKALVANPEDLPHLEALARERGVELQAEPALRLGVRAVGAEGKTQVENSLLARLDRAWDALSSKVAQALWG
notes: V/A-type ATPase E-subunit (peripheral stalk), Thermus thermophilus; native subunit in the isolated whole enzyme; Two copies in the enzyme (two EG stalks); also called subunit E; EG stalk (with G)
B2: D-subunit of the V/A-ATPase from Thermus thermophilus (natural protein, UniProt O87880 1-223, looked up)
chain: MSQVSPTRMNLLQRRGQLRLAQKGVDLLKKKRDALVAEFFGLVREAMEARKALDQAAKEAYAALLLAQAFDGPEVVAGAALGVPPLEGVEAEVENVWGSKVPRLKATFPDGALLSPVGTPAYTLEASRAFRRYAEALIRVANTETRLKKIGEEIKKTTRRVNALEQVVIPGIRAQIRFIQQVLEQREREDTFRLKRIKGKIEAREAEEEGGRPNPQVEIGAGL
notes: V/A-type ATPase D-subunit (central rotor shaft), Thermus thermophilus; native subunit in the isolated whole enzyme; One copy in the enzyme (D1F1d1c12 rotor); also called subunit D; V1-DF (with F)
B3: F-subunit of the V/A-ATPase from Thermus thermophilus (natural protein)
chain: MAVIADPETAQGFRLAGLEGYGASSAEEAQSLLETLVERGGYALVAVDEALLPDPERAVERLMRGRDLPVLLPIAGLKEAFQGHDVEGYMRELVRKTIGFDIKL
notes: V/A-type ATPase F-subunit (central rotor), Thermus thermophilus; native subunit in the isolated whole enzyme; One copy in the enzyme; also called subunit F; V1-DF (with D)

Assays:
Assay in all cases: cryo-EM structure; single particle cryo-EM of the whole V/A-ATPase in TE buffer (20 mM Tris-HCl pH 8.0, 0.1 mM EDTA) with 0.003% LMNG and 100 mM NaCl, no nucleotide added; three rotational states (5.0, 6.7, 7.5 Å), focused V1EGd map of state1 4.7 Å; crystal structures and homology models fitted by MDFF
[1] = target: c-subunit (subunit L) of the V/A-ATPase from Thermus thermophilus, with His3 tag on the C-terminus (Thermus thermophilus)
[2] = target: T1, B-subunit of the V/A-ATPase from …; settings: both partners purified
[3] = target: T2, d-subunit (subunit C) of the V/A-ATPase …; settings: both partners purified
[4] = target: B2; settings: both partners purified

Question: For “c-subunit (subunit L) of the V/A-ATPase from Thermus thermophilus, with His3 tag on the C-terminus (natural protein)”, which stoichiometry N [1] is on record?
Answer: The stoichiometry N was 12.

Question: Does B1 bind [2]?
Answer: Result: binds

Question: Does B2 bind [3]?
Answer: Result: binds

Question: Does B3 bind [4]?
Answer: Result: binds
